In patent publication US20100075897A1, “METHOD FOR S[…] BIOACTIVE PEPTIDES AND APPLICATION THEREOF” (JINAN UNIVERSITY, priority 2008, published 2010):
Ends that are not written are not given here.

What was measured:
[1] = molecular target: T1, human serum albumin (human, UniProt P02768 25-609); test: phage ELISA on plate-coated HSA, Table 3 absorbance (sample minus blank), dilution column 6 of 12
T1 construct: Bought protein; coated on plates (ELISA) or coupled to a CM5 chip (SPR); also called HSA; human albumin
T1 sequence (P02768 25-609 limits assumed): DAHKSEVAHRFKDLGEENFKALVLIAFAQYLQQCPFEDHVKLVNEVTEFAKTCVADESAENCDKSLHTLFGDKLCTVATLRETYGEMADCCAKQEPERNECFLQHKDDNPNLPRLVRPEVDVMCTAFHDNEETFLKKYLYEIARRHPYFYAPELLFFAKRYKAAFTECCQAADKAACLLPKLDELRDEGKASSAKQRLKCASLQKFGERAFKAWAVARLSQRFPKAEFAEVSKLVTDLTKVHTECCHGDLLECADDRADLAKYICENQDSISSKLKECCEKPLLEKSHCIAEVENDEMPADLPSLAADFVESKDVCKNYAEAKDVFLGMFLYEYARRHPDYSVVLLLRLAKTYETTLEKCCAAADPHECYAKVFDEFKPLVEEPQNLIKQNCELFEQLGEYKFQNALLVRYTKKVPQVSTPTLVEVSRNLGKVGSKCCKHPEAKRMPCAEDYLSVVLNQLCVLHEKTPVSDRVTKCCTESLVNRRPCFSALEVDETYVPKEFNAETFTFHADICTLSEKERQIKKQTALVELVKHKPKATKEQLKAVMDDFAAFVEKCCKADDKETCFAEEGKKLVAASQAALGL

[2] = molecular target: T1, human serum albumin; test: phage ELISA on plate-coated HSA, Table 3 absorbance (sample minus blank), dilution column 7 of 12
[3] = molecular target: T1, human serum albumin; test: phage ELISA on plate-coated HSA, sample row, dilution column 2 of 12
[4] = molecular target: T1, human serum albumin; test: phage ELISA on plate-coated HSA, sample row, dilution column 1 of 12
[5] = molecular target: T1, human serum albumin; test: phage ELISA on plate-coated HSA, sample row, dilution column 3 of 12
[6] = molecular target: T1, human serum albumin; test: SPR (BIAcore 3000), HSA on CM5 chip, polypeptide injected, 1:1 model
Description: Signal of conjugated channel subtracted by that of unconjugated channel of injected solution was calculated as the amount of bound peptides during a defined period, as shown in FIG. 4. PBS buffer containing 0.05% Tween-20 was used for dilution of all samples. SPR curve was evaluated by BIAcore™ kinetics evaluation software (Version 4.1). […] Kd was calculated from binding rate (kₒₙ) and dissociating rate (koff), i.e. dissociation constant.

B1: Phage ID NO. 5 (M13 phage displaying the peptide of SEQ ID NO. 5, LPWHLKYREPPR) (peptide)
peptide: LPWHLKYREPPR
modifications: also: displayed on M13 phage coat protein
notes: Tested as whole phage particles, not as free peptide; not shown: not described
- absorbance at 405 nm [1]: 0.08

B2: Phage ID NO. 7 (M13 phage displaying the peptide of SEQ ID NO. 7, SLFRHQHATPQI) (peptide)
peptide: SLFRHQHATPQI
modifications: also: displayed on M13 phage coat protein
notes: as for B1
- absorbance at 405 nm [2]: 0.1
- absorbance at 405 nm [3]: 0.08
- absorbance at 405 nm [4]: 0.08

B3: Phage ID NO. 3 (M13 phage displaying the peptide of SEQ ID NO. 3, DICLPRWGCLWE) (peptide)
peptide: DICLPRWGCLWE
modifications: not fully specified (bridges); cysteine pairing not given here; also: displayed on M13 phage coat protein
notes: as for B1
- absorbance at 405 nm [5]: 0.1

B4: DP5.1 fusion polypeptide (peptide)
peptide: LPWHLKYREPPR
modifications: not fully specified; also: fusion polypeptide ABP-LK-GLP, linker and GLP-1 part not given here
notes: also called ABP-LK-GLP; not shown: rest of DP5.1 (any N-terminal Pro, linker, GLP-1 part) is printed nowhere
- Kd [6]: 4.6 µM
